Assay results taken from PMC6607443, “Systematic identification of recognition motifs for the hub protein LC8” (Life Science Alliance, 2019).

Biological target: dynein light chain LC8 (UniProt P63167 1-89)
Assay: ITC; peptide (500 μM) injected into 25 μM LC8 in the cell; 25°C; 50 mM sodium phosphate, 50 mM NaCl, 1 mM sodium azide, 5 mM β-mercaptoethanol, pH 7.5; single-site model; averages of two to three experiments
Details: both partners purified

Sequence of dynein light chain LC8 (P63167 whole entry): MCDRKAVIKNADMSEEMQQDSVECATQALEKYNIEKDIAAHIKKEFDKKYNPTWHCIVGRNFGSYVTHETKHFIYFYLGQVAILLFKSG

| Binder | Kd [µM] | stoichiometry N [peptide per LC8 chain] |
| --- | --- | --- |
| DDSGGNATTQTTSD [ROR1 peptide] | > 25 |  |
| ARAGRSVSTQTGSM [CIZ1 peptide] |  | 1 |
| PVLTSATGTQTSPA [MUC3A peptide] |  | 1 |
| EKELRHIGTQISSD [ICE1 peptide] |  | 1 |
| YGCTRHQSVQTEDG [MAST1 peptide] |  | 1 |
| QDFMKHLDKKTQTPKL [CCL7 peptide] |  | 1 |
| SKTQQTFGSQTECT [TOGARAM1 peptide] | > 25 |  |
| YSRKSRCVSVQTDPT [SON peptide] |  | 1 |
| DDNHWTRSTQTTRE [MUC4 peptide with N-terminal aspartates (DDNHWTRSTQTTRE)] |  | 1 |
| HPETQDSSTQTDTS [SPAG5 peptide] |  | 1 |
| GQGAALTTATQTTHLE [GP1BA peptide] | > 25 |  |
| NQSFTTASTQTPPQ [CAPRIN2 peptide] |  | 1 |
| PRATAEFSTQTPSP (also called BSN^II; modified BSN peptide) [bassoon (BSN) peptide, modified version with the TQT motif near the C-terminus] |  | 1 |
| SPSPTGLPTQTPGF [ARAP3 peptide] | > 25 |  |
| APMSCDKSTQTPSP [BCL2L11 peptide] | 0.16 | 1 |
| SSSTRSIDTQTPSV [GLCCI1 peptide] |  | 1 |
| AKESCNMETQTSST [OFD1 peptide] |  | 1 |
| PAPPSYSDKGVQTPSK [ZFPM1 peptide] |  | 1 |
| YDSMDHLDKQTQTPKT [CCL2 peptide] |  | 1 |
| DDHSREKGTQTSGD [SLC9A2 peptide] |  | 1 |
| SQNHWTRSTQTTRE [MUC4 peptide (SQNHWTRSTQTTRE)] |  | 1 |
